According to patent US20170096478A1, “THERAPEUTIC AGENT FOR INFLAMMATORY DISEASE” (Josai University Corporation, priority 2012, published 2017):

Assays:
[1] = test system: CD3 positive T cells; assay: Reactivity of the monoclonal antibody with T cells by flow cytometry (FACS); type: cell-based, C57BL/6 mouse; conditions: unstimulated T cells, 16G9 mAb compared with SSV mAb
Experimental: Using the following approach, spleen was removed from a C57BL/6 mouse (5 weeks old, female, CHARLES RIVER LABORATORIES JAPAN, INC.) to prepare whole splenic cells.
First, in a 5 ml culture dish (BD Bioscience FALCON 351007) into which 5 ml RPMI 1640 culture medium (Sigma-Aldrich, R-8758) was transferred, spleen was disentangled well with scissors for dissection and forceps to suspend the splenic cells, which were then transferred to a 15 ml centrifuge tube (BD Bioscience FALCON 352096). Then, the 5 ml dish was washed several times with phosphate-buffered saline (PBS, Invitrogen, 20012-027), and these were also added to the foregoing cell suspension and allowed to stand, and then the supernatant was collected in another 15 ml centrifuge tube. In addition, 5 ml RPMI 1640 culture medium was also added to the residual insoluble spleen tissue again and allowed to stand, and then only the supernatant was collected, which was combined with the above-mentioned cell suspension to perform centrifugation at 1,500 rpm for 5 min. To the collected cells, added was 2 ml lysis buffer (150 mM NH4Cl/15 mM NaHCO3/0.1 mM EDTA-Na2, pH 7.3) and hemolyzed by tapping, and then 10 ml PBS was added. After washed 3 times by centrifugation at 1,500 rpm for 5 min, whole splenic cells were obtained. […]
The reactivity of the above unstimulated with 16G9 mAb or SSV mAb was analyzed by flow cytometry (FACS). […]

[2] = test system: lipopolysaccharide (LPS)-induced lethal sepsis; assay: Test Example 7: survival in LPS-induced lethal sepsis; type: in vivo, BALB/c mice
Experimental: BALB/c mice (bodyweight of 20 g to 30 g when starting the experiments, n=6) were raised in a plastic cage under SPF and thermo-hydrostat (22±1° C., 55±5%) conditions under 12-hour light-dark cycle. Foods and water were supplied ad libitum. Lipopolysaccharide (LPS)-induced lethal sepsis which is generally employed as an experimental sepsis model was induced by intraperitoneally administering LPS at a dose of 40 mg/kg. SSV mAb dissolved in physiological saline was intraperitoneally administered totally 3 times, i.e., at 30 minutes before, 6 hours after and 12 hours after the intraperitoneal administration of LPS, in an amount of 100 μg/dose in terms of the amount of SSV mAb. The survival of the animals thereafter was tested. To the control group, IgG (SIGMA) dissolved in physiological saline was administered in place of SSV mAb in the same manner.

B1: SSV mAb: monoclonal antibody (IgG1) produced by Mouse-Mouse hybridoma SSV-C 93-3 (NITE BP-972), raised against peptide … (SEQ ID NO:1)-KLH conjugate (antibody, V domains shown)
VH: EIQLQQSGAELVKPGASVKISCKASGYSFTGYNMNWVKQSHGKSLEWIGNINPYYGSTSYNQKFKGKATLTVDKSSSTAYMQLNSLTSEDSAVYYCARSPYYSNYWRYFDYWGQGTTLTVSS
VL: QIVLSQSPAILSASPGEKVTMTCRASSSVSYMHWYQQKPGSSPKPWIYATSNLASGVPARFSGSGSGTSYSLTISRVEAEDAATYYCQQWSSNPWTFGGGTKLEIK
For B1, the “reactivity with CD3 positive T cells” value [1] was “comparative reactivity”, the cumulative survival rate ([2]; 70 hours after administration of LPS) was 0.7 and the survival rate ([2]; 70 hours after administration of LPS 40 mg/kg i.p., 100 μg/dose i.p. 3 times) was 70%. The “survival rate relative to that of the control group” value ([2]; 70 hours after administration of LPS, p<0.05) was “about 3.5 times”.
